How the values were obtained:
plasmin [1] = target: T1, plasmin (UniProt P00747 97-810); assay: SPR, Ir-CPI immobilised; two-state model, global equilibrium constant K = ka1ka2/kd1kd2
factor XIa [2] = target: T2, factor XIa (UniProt P03951 19-625); assay: as above
T2 construct: also called fXIa; FXIa

plasma kallikrein [3] = target: T3, plasma kallikrein (UniProt P03952 20-638); assay: as above
T3 construct: The active enzyme is the cleaved two-chain form of the precursor

plasmin [4] = target: T1, plasmin; assay: SPR, Ir-CPI immobilised; two-state model, forward rate of the conformation change
factor XIa [5] = target: T2, factor XIa; assay: as above
plasma kallikrein [6] = target: T3, plasma kallikrein; assay: as above
thrombin = target: T4, thrombin (UniProt P00734 328-622); assay: SPR (BIAcore X), Ir-CPI immobilised at 1500 RU on CM5, factor injected
T4 construct: also called factor IIa; IIa

factor X = target: T5, factor X (UniProt P00742 41-488); assay: as above
T5 construct: Zymogen; also called fX

factor IX = target: T6, factor IX (UniProt P00740 47-461); assay: as above
T6 construct: Zymogen; also called fIX

factor VIIa = target: T7, factor VIIa (UniProt P08709 61-466); assay: as above
T7 construct: also called fVIIa; FVIIa
T7 sequence (looked up): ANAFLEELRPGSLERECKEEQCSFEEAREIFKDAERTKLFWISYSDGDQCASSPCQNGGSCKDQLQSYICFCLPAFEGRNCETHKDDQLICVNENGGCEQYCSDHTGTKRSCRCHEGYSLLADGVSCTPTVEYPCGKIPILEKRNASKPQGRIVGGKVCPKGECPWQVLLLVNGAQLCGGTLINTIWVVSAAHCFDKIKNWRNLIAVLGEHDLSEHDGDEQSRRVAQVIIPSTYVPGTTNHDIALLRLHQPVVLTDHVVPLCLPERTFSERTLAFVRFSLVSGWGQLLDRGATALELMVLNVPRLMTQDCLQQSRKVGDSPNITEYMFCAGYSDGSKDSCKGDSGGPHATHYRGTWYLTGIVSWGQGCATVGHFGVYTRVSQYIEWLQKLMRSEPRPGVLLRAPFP

[7] = target: T8, high molecular weight kininogen (UniProt P01042 19-644); assay: as above
T8 construct: also called HMWK
T8 sequence (looked up): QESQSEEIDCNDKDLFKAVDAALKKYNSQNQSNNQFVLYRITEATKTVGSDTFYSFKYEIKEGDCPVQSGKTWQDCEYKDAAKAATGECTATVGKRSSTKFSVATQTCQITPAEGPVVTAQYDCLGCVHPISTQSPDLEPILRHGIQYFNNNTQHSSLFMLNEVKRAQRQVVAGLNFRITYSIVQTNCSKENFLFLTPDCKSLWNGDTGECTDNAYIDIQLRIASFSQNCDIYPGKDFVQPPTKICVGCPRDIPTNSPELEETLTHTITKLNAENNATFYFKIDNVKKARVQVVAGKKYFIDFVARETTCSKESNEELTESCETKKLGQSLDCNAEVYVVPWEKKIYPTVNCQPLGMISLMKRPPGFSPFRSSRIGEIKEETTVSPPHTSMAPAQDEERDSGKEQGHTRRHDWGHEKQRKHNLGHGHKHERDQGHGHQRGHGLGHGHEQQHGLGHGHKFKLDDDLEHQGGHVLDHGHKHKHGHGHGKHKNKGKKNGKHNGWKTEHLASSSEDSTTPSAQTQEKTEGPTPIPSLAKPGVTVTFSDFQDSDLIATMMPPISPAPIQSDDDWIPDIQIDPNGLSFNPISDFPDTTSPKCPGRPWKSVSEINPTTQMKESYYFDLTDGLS

plasminogen = target: T9, plasminogen (UniProt P00747 20-810, limits assumed); assay: as above
T9 construct: Zymogen

t-PA = t-PA (UniProt P00750 36-562); assay: as above
plasmin [8] = target: T1, plasmin; assay: SPR, Ir-CPI immobilised; two-state model, backward rate of the conformation change
factor XIa [9] = target: T2, factor XIa; assay: as above
plasma kallikrein [10] = target: T3, plasma kallikrein; assay: as above
plasmin [11] = target: T1, plasmin; assay: SPR (BIAcore X), Ir-CPI immobilised at about 200 RU, factor injected at 5-300 nM; two-state model, ka1 (first step)
factor XIa [12] = target: T2, factor XIa; assay: as above
plasma kallikrein [13] = target: T3, plasma kallikrein; assay: as above
plasmin [14] = target: T1, plasmin; assay: SPR (BIAcore X), Ir-CPI immobilised at about 200 RU, factor injected at 5-300 nM; two-state model, kd1 (first step)
factor XIa [15] = target: T2, factor XIa; assay: as above
plasma kallikrein [16] = target: T3, plasma kallikrein; assay: as above

T1 sequence (P00747 97-810 limits assumed): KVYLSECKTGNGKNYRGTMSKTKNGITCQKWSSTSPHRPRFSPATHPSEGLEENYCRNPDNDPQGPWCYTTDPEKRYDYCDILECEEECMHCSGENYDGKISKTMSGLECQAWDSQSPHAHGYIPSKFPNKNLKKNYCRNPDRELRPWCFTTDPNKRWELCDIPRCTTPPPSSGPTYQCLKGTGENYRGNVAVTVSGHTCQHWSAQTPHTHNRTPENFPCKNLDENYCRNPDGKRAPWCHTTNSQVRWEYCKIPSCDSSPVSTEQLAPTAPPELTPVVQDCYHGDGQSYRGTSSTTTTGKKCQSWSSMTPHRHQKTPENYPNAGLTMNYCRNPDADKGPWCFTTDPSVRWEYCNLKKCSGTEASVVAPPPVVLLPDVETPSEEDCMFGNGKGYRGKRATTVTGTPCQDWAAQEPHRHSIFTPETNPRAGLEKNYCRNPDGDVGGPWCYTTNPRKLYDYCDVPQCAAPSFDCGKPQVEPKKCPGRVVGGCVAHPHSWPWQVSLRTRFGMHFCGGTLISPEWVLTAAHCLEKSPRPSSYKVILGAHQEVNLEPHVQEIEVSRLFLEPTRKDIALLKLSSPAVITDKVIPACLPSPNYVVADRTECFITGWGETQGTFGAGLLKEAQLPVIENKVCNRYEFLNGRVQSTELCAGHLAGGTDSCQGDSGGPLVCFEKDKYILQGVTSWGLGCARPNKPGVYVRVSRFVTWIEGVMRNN
T3 sequence (P03952 20-638 limits assumed): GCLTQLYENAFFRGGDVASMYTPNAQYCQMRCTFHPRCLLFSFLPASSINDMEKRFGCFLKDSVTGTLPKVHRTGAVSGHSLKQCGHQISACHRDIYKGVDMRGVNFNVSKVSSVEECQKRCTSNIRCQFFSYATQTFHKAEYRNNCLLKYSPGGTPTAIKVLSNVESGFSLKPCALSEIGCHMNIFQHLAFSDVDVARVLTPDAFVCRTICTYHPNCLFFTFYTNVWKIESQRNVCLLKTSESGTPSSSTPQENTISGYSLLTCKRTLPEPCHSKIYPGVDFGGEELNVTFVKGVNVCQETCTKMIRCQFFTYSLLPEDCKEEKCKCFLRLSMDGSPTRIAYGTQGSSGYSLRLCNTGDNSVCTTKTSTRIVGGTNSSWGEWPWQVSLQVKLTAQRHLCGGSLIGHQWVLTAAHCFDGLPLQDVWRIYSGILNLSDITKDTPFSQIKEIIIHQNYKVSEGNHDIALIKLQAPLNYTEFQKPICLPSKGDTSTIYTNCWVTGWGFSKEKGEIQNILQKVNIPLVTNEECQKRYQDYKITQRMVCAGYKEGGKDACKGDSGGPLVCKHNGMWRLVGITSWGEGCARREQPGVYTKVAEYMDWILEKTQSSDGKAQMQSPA
T9 sequence (P00747 20-810 limits assumed): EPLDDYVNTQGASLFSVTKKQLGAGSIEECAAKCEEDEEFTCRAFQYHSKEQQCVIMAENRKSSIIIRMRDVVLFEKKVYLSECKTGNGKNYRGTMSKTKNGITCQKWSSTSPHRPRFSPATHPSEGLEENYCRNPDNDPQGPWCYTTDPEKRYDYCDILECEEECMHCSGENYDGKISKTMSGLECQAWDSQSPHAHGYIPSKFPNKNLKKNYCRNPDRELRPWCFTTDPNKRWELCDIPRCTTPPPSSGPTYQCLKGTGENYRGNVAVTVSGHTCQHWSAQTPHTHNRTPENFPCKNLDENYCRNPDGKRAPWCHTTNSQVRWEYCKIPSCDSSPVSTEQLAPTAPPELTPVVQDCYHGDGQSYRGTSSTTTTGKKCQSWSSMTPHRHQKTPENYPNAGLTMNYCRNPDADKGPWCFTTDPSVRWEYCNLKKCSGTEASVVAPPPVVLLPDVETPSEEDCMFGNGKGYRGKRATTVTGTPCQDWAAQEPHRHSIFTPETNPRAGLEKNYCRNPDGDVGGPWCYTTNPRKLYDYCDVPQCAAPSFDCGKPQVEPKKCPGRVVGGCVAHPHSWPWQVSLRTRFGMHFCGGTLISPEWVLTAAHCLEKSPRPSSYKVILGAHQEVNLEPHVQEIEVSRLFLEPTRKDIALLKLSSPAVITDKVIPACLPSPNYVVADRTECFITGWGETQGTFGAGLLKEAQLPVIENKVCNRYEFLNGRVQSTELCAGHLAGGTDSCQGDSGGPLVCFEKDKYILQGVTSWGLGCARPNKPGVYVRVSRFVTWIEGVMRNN
Chain of t-PA (P00750 36-562 limits assumed): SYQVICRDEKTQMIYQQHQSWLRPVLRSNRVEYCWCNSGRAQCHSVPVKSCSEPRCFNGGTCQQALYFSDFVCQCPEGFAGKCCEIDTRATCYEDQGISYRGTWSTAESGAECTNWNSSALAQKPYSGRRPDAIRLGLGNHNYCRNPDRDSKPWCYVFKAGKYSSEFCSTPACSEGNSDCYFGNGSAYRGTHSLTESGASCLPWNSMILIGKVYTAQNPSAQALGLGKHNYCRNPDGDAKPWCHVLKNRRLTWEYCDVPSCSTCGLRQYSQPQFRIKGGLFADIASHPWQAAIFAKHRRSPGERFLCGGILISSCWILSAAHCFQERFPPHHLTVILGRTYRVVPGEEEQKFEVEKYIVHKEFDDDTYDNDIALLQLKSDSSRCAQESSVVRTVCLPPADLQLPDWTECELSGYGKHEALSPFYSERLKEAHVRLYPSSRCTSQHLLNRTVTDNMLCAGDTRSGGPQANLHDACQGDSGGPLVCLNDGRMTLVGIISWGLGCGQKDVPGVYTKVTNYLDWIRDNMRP

B1: Ir-CPI (other)
chain: ANHKGRGRPAKCKLPPDDGPCRARIPSYYFDRKTKTCKEFMYGGCEGNENNFENITTCQEECRAKKV
notes: Expressed in E. coli as a GST fusion (pGEX-6P-1), released with PreScission protease and purified by gel filtration; Immobilised on a CM5 chip by amine coupling in the SPR assays; also called recombinant Ir-CPI
Plasmin [1]
  Ka: 3.3e+08 M⁻¹
Factor XIa [2]
  Ka: 3.83e+08 M⁻¹
Plasma kallikrein [3]
  Ka: 4.51e+06 M⁻¹
Plasmin [4]
  ka2: 0.00582 s⁻¹
Factor XIa [5]
  ka2: 0.0298 s⁻¹
Plasma kallikrein [6]
  ka2: 0.00834 s⁻¹
thrombin
  binding result: no binding (tested: 100 nM)
Factor X
  binding result: no binding (tested: 100 nM)
Factor IX
  binding result: no binding (tested: 100 nM)
Factor VIIa
  binding result: no binding (tested: 100 nM)
[7]
  binding result: no binding (tested: 100 nM)
plasminogen
  binding result: no binding (tested: 100 nM)
t-PA
  binding result: no binding (tested: 100 nM)
Plasmin [8]
  kd2: 0.00614 s⁻¹
Factor XIa [9]
  kd2: 0.00232 s⁻¹
Plasma kallikrein [10]
  kd2: 0.00142 s⁻¹
Plasmin [11]
  kon: 900000 M⁻¹ s⁻¹
Factor XIa [12]
  kon: 2.31e+06 M⁻¹ s⁻¹
Plasma kallikrein [13]
  kon: 34900 M⁻¹ s⁻¹
Plasmin [14]
  koff: 0.00535 s⁻¹
Factor XIa [15]
  koff: 0.102 s⁻¹
Plasma kallikrein [16]
  koff: 0.0532 s⁻¹

— patent EP2123670B1 (Bioxodes SA, dated 2017)
